Data reported in the supplement of paper PMC10567573.

B1: TNXB (parent)
chain: LLQRELMVPGTRHSAVLRDLRSGT
B2: RHOBTB2 (parent)
chain: NQEITKAFHVRRTNRVKECLAKGT

Variants of: B1
Experiment: protein stability index of a GFP-peptide fusion (GPS, HEK-293T) (PSI 1-6); higher = more stable
Details: c terminus: a fixed tail appended
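Also: lentivirally expressed fusions sorted by FACS into six bins by GFP to DsRed ratio, PSI derived from sequencing read proportions per bin multiplied by bin number.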

Point of comparison: LLQRELMVPGTRHSAVLRDLRSMT [G23M], protein stability index 2.22. Against it:
- LLGRELMVPGTRHSAVLRDLRSGT [Q3G] — higher, 2.74
- LLPRELMVPGTRHSAVLRDLRSGT [Q3P] — higher, 2.88
- LLQRELMVHGTRHSAVLRDLRSGT [P9H] — higher, 2.23
- LLQRELMVPGTRHSACLRDLRSGT [V16C] — lower, 2.02
- LLQRELMVPGTRFSAVLRDLRSGT [H13F] — lower, 1.59
- LLQRELMVPGTRHSAVTRDLRSGT [L17T] — higher, 2.73
- LLQRELMVPGTRHSAVFRDLRSGT [L17F] — higher, 2.23
- LLQRELMVPGTRHSAVLRDLRGGT [S22G] — lower, 2.12
- LLQRELMVPGTRHSAVLRDLRIGT [S22I] — higher, 2.5
- LLQRELMVPGTRHSAVLRDLRHGT [S22H] — lower, 2.2
- LLQRELMVPGTRHSAVLRDLRCGT [S22C] — lower, 2
- LLQRELMVPGTRHSLVLRDLRSGT [A15L] — lower, 2.14
- LLQRELMVPGTRHSVVLRDLRSGT [A15V] — lower, 1.95
- LLQRELMVPGTRHSFVLRDLRSGT [A15F] — lower, 1.98
- LLQRELMVPGTRHSSVLRDLRSGT [A15S] — higher, 2.27
- LLQRELMVPGTRHSHVLRDLRSGT [A15H] — higher, 2.41
- LLQRELMFPGTRHSAVLRDLRSGT [V8F] — higher, 2.28
- LLQRELMVPGTRHSAVLRDLRSGP [T24P] — higher, 2.54
- LLQRELMVPGTRHSAVLRDNRSGT [L20N] — higher, 3.53
- LLQRELMVPGTRHSAVLRDYRSGT [L20Y] — higher, 2.27
- LLQRELMVPGTRHSAVLMDLRSGT [R18M] — lower, 2.12
- LLQRELMVPGTDHSAVLRDLRSGT [R12D] — higher, 3.01
- LLQRELMVPGTWHSAVLRDLRSGT [R12W] — higher, 2.35
- LLQREGMVPGTRHSAVLRDLRSGT [L6G] — higher, 2.8
- LLQRENMVPGTRHSAVLRDLRSGT [L6N] — higher, 2.9
- LLQRERMVPGTRHSAVLRDLRSGT [L6R] — higher, 2.59
- LLQRETMVPGTRHSAVLRDLRSGT [L6T] — higher, 3.53
- LLQRELMVPGTRHSAVLRNLRSGT [D19N] — lower, 2.06
- LLQRELMVPGTRHSAVLRLLRSGT [D19L] — lower, 1.75
- LLQRHLMVPGTRHSAVLRDLRSGT [E5H] — lower, 1.87
- LLQRTLMVPGTRHSAVLRDLRSGT [E5T] — lower, 1.77
- LLQRELMVPGTRHIAVLRDLRSGT [S14I] — lower, 1.75
- LLQRELMVPGTRHCAVLRDLRSGT [S14C] — lower, 2.03
- QLQRELMVPGTRHSAVLRDLRSGT [L1Q] — higher, 3.22
- CLQRELMVPGTRHSAVLRDLRSGT [L1C] — higher, 2.38
- WLQRELMVPGTRHSAVLRDLRSGT [L1W] — lower, 1.61
- DLQRELMVPGTRHSAVLRDLRSGT [L1D] — higher, 2.71
- LLQRELEVPGTRHSAVLRDLRSGT [M7E] — higher, 3.61
- LLQRELMVPGTRHSAVLRDLGSGT [R21G] — higher, 2.43
- LLQRELMVPGTRHSAVLRDLESGT [R21E] — higher, 2.58
- LLQRELMVPGTRHSAVLRDLCSGT [R21C] — lower, 2.06
- LLQRELMVPGTRHSAVLRDLTSGT [R21T] — lower, 2.18
- LLQRELMVPGTRHSAVLRDLFSGT [R21F] — lower, 1.95
- LLQRELMVPNTRHSAVLRDLRSGT [G10N] — higher, 2.75
- LLQRELMVPVTRHSAVLRDLRSGT [G10V] — lower, 2.02
- LLQRELMVPCTRHSAVLRDLRSGT [G10C] — lower, 1.43
- LLQRELMVPLTRHSAVLRDLRSGT [G10L] — lower, 1.35

Variants of: B2
Experiment: as above
Details: c terminus: a fixed tail appended

Point of comparison: NQEIHKAFHVRRTNRVKECLAKGT [T5H], protein stability index 4.29. Against it:
- NQEISKAFHVRRTNRVKECLAKGT [T5S] — lower, 3.48
- NQEIQKAFHVRRTNRVKECLAKGT [T5Q] — lower, 4.06
- NQEILKAFHVRRTNRVKECLAKGT [T5L] — lower, 2.86
- NQEIYKAFHVRRTNRVKECLAKGT [T5Y] — lower, 3.46
- NQEIIKAFHVRRTNRVKECLAKGT [T5I] — lower, 4.04
- NQEIPKAFHVRRTNRVKECLAKGT [T5P] — lower, 3.88
- NQEIRKAFHVRRTNRVKECLAKGT [T5R] — lower, 3.7
- NQEIKKAFHVRRTNRVKECLAKGT [T5K] — lower, 4.06
- NQEIVKAFHVRRTNRVKECLAKGT [T5V] — lower, 3.51
- NQEIEKAFHVRRTNRVKECLAKGT [T5E] — lower, 4.16
- NQEIWKAFHVRRTNRVKECLAKGT [T5W] — lower, 3
- NQEIDKAFHVRRTNRVKECLAKGT [T5D] — lower, 3.84
- NQEIGKAFHVRRTNRVKECLAKGT [T5G] — lower, 2.21
- NQEIFKAFHVRRTNRVKECLAKGT [T5F] — lower, 2.67
- NQEIAKAFHVRRTNRVKECLAKGT [T5A] — lower, 3.75
- NQEICKAFHVRRTNRVKECLAKGT [T5C] — lower, 2.04
- NQEINKAFHVRRTNRVKECLAKGT [T5N] — lower, 3.22
- NQEIMKAFHVRRTNRVKECLAKGT [T5M] — lower, 3.42
- NQEITDAFHVRRTNRVKECLAKGT [K6D] — lower, 4
- NQEITRAFHVRRTNRVKECLAKGT [K6R] — lower, 2.87
- NQEITQAFHVRRTNRVKECLAKGT [K6Q] — lower, 3.18
- NQEITFAFHVRRTNRVKECLAKGT [K6F] — lower, 2.97
- NQEITSAFHVRRTNRVKECLAKGT [K6S] — lower, 2.77
- NQEITEAFHVRRTNRVKECLAKGT [K6E] — lower, 4.03
- NQEITWAFHVRRTNRVKECLAKGT [K6W] — lower, 2.34
- NQEITVAFHVRRTNRVKECLAKGT [K6V] — lower, 2.1
- NQEITMAFHVRRTNRVKECLAKGT [K6M] — lower, 2.29
- NQEITHAFHVRRTNRVKECLAKGT [K6H] — lower, 3.87
- NQEITIAFHVRRTNRVKECLAKGT [K6I] — lower, 1.51
- NQEITCAFHVRRTNRVKECLAKGT [K6C] — lower, 2.21
- NQEITTAFHVRRTNRVKECLAKGT [K6T] — lower, 3.43
- NQEITNAFHVRRTNRVKECLAKGT [K6N] — lower, 3.25
- NQEITYAFHVRRTNRVKECLAKGT [K6Y] — lower, 2.25
- NQEITGAFHVRRTNRVKECLAKGT [K6G] — lower, 3.49
- NQEITPAFHVRRTNRVKECLAKGT [K6P] — lower, 4.09
- NQEITLAFHVRRTNRVKECLAKGT [K6L] — lower, 2.84
- NFEITKAFHVRRTNRVKECLAKGT [Q2F] — lower, 3.01
- NLEITKAFHVRRTNRVKECLAKGT [Q2L] — lower, 2.4
- NAEITKAFHVRRTNRVKECLAKGT [Q2A] — lower, 3.21
- NYEITKAFHVRRTNRVKECLAKGT [Q2Y] — lower, 3.31
- NHEITKAFHVRRTNRVKECLAKGT [Q2H] — lower, 3.53
- NNEITKAFHVRRTNRVKECLAKGT [Q2N] — lower, 3.42
- NKEITKAFHVRRTNRVKECLAKGT [Q2K] — lower, 3.78
- NPEITKAFHVRRTNRVKECLAKGT [Q2P] — lower, 3.4
- NCEITKAFHVRRTNRVKECLAKGT [Q2C] — lower, 3.16
